This is an account of results in article PMC11588662 (2024).

The assay has as its target CD33 Db-FM (fluorescein-maleimide-labelled anti-CD33 diabody, clone SGN-33) (fluorescein-5-maleimide on the engineered C-terminal cysteine (added after the hexahistidine tag)). The experiment in a line: SPR.

B1: extracellular domain of CD33, His-tagged protein (domain or fragment)
chain: DPNFWLQVQESVTVQEGLCVLVPCTFFHPIPYYDKNSPVHGYWFREGAIISRDSPVATNKLDQEVQEETQGRFRLLGDPSRNNCSLSIVDARRRDNGSYFFRMERGSTKYSYKSPQLSVHVTDLTHRPKILIPGTLEPGHSKNLTCSVSWACEQGTPPIFSWLSAAPTSLGPRTTHSSVLIITPRPQDHGTNLTCQVKFAGAGVTTERTIQLNVTYVPQNPTTGIFPGDGSGKQETRAGVVH
In the case of B1, the affinity, expressed as Kd, was 7 nM.
